The values that follow come from US20050203012A1.

The target in experiment [1] is human PTH-1 receptor (human) (UniProt Q03431). Description: cell-based or functional assay.
For experiment [2] the target is unchanged. Nature of the experiment: radioligand binding on HKRK B7 cells, no competitor, 2-8° C. for 6 hr.
Experiment [3] has the same target. Nature of the experiment: competition with ^125I-[Nle^8,21, Tyr^34]rat PTH-(1-34) on HKRK B7 cells.

human PTH-1 receptor (human), sequence (Q03431 27-593): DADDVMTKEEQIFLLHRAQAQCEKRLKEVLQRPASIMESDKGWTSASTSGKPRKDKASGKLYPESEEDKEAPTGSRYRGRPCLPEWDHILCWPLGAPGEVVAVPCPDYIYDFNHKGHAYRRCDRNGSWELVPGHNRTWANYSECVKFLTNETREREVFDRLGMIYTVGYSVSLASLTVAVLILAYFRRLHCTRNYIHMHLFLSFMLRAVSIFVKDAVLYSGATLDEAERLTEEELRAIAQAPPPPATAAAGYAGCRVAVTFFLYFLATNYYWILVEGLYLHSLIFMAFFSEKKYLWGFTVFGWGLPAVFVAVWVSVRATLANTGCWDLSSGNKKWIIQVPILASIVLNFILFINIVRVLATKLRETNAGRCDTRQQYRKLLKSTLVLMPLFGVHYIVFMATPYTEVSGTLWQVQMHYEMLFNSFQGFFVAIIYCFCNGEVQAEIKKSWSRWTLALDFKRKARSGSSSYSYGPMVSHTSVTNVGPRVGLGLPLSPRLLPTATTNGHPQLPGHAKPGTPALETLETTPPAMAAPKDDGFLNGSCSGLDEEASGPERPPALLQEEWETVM

Substance “[Tyr^0]hPTH-(1-34) (from UniProt P01270 32-65) (peptide)” had a PLC activity at 1000 nM peptide (percent of basal) in experiment [1] of 105.
For the substance “^125I-[Nle^8,21, Tyr^34]rat PTH-(1-34) (from UniProt P04089 32-65) (peptide)”, in experiment [2], the cell-associated radioactivity (binding), basal was 25500 cpm/well.
As for “desamino-[Ala^1]hPTH-(1-34) (from UniProt P01270 32-65) (peptide)”, in experiment [1], the PLC Activity (% Basal) at 1000 nM is 106 % Basal.
Still for that read-out and setting: with “desamino-[Gly^1]hPTH-(1-34) (from UniProt P01270 32-65) (peptide)” the figure was 108 % Basal.
In the case of “desamino-hPTHrP(1-36) (from UniProt P12272 37-72) (peptide)”, the PLC activation at 1000 nM peptide (percent of basal) in experiment [1] stood at 101.
Regarding “hPTH-(1-34) (from UniProt P01270 32-65) (peptide)”, in experiment [1], the Cyclic AMP accumulation (% Maximum) at 0.01 nM is 1.7 % Maximum, the Cyclic AMP accumulation (% Maximum) at 0.1 nM was 14 % Maximum, the Cyclic AMP accumulation (% Maximum) at 1 nM was determined as 45 % Maximum and the Cyclic AMP accumulation (% Maximum) at 10 nM turned out to be 93 % Maximum. In experiment [1], this substance came in with a Cyclic AMP accumulation (% Maximum) at 100 nM of 96 % Maximum, a Cyclic AMP accumulation (% Maximum) at 1000 nM of 100 % Maximum, an EC50 of PLC activation of 30 nM and an IP3 Formation (% Maximum) at 1000 nM of 87 % Maximum. In experiment [1], this substance showed an IP3 Formation (% Maximum) at 10000 nM of 100 % Maximum, an IP3 formation at maximal concentrations of hPTH-(1-34) of 1910 cpm/well, a PLC Activity (% Basal) at 1000 nM of 854 % Basal and a cAMP accumulation at maximal concentrations of hPTH-(1-34) (pmoles/well/15 min) of 207. For the same substance, the cell-associated radioactivity (binding) in the presence of maximal concentrations of hPTH-(1-34) in experiment [3] came out at 956 cpm/well.
Turning to “hPTH-(2-34) (from UniProt P01270 33-65) (peptide)”, the PLC Activity (% Basal) at 1000 nM in experiment [1] amounted to 88 % Basal.
“hPTHrP(1-36) (from UniProt P12272 37-72) (peptide)” registered a PLC activation at 1000 nM peptide (percent of basal) in experiment [1] of 178.
